Measurements as given in the nanobody polyreactivity screen of Harvey et al. (2022).

Assay: yeast display, Sf9 membrane polyspecificity reagent, FACS + sequencing; frameworks hold sequencing errors
In short: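 Polyreactivity labels are assigned by the sorting gate from which each nanobody was recovered. The gates were low and high (top ~1%), set on anti-HA fluorescence for expression and streptavidin fluorescence for reagent binding. Before sorting, galactose-induced (36–48 hours) yeast display cells were stained for 1 hour at 4 °C with 10% biotinylated, detergent-solubilized Sf9 membrane reagent.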

| Sequence | polyreactivity (PSR sort gate) |
| --- | --- |
| QVQLVESGAALVQAGGSLRLSCAASGFIIYDYMGWYRQAPGKERELVAVISYSGSSTYYADSVKGRFTISRDNAKNTDYLQMNSLKPEDTAVYYCAARNVNGWDYDYWGLGTQVTVSS | low polyreactivity |
| QVQLVESGAGIVQAGGSLRLSCAASGSTFGRYAMGLYTQAPGKERELVAAISASGGSTYYADSVKGRFTISRDNAKTTVYLQMNSLTPEDTAVYYCAKDRPQTRLWYYFIDDYDYRGQGTQVTVSS | high polyreactivity |
| QVQLVESGAGLFKAGGSLRLSCAASGRIFATNAMGWYRQAPGKERELVAAISSSGGSTYYADSVKGRFTISRDNAKNTVYLQMNSLKPEDTAVYDCAAAHSYYVHYYYWGQGTQGTVSS | high polyreactivity |
| QVQLVESGAGLVKAGGSLRLSCAASGRTLTGNDMGWYRQAPGKERELVAAITARGGSTYYADSVKGRFTISRDNAKNTVYLQMNSLKPEDTAVYYGATLPVRIRRDYWGQGTQVTVSS | high polyreactivity |
| QVQLVESGAGLVLAGGSLRLSCAASGRTFRLYAMGWYRQAPGKERELVAAISYSDGRTYYADSVKGRFTISRDNAKNTVYLQMNSLKPEDTAVYYCAAETLYVAGSYYWGQGTQVTVSS | high polyreactivity |
| QVQLVESGAGLVQAAGRLRLSCAASGNTFKVNVMGWYRPAPGKERQLVASITINDRSTYYADSVKGRFTISRDNAKNTVYLQMNSLKREDTEVYYCGGDLADFYPRFNYWGQGTQVSVSS | low polyreactivity |
| QVQLVESGAGLVQAGGILLLSSAASGRIFLFYSLGWSRQEPGKERELVAAISVRGGSTYYADSVKGRITISRDNAKNTVFLQMNSLKPEDTAVYYCNAPNYRSRFDYWGQGTQVTVSS | high polyreactivity |
| QVQLVESGAGLVQAGGSLRISCAASASIFAYYVMGRYREAPGKERELVAAITRSGSPYYADSVKGRFTISRDNAKNTVYLQMNSLKPEDTAVYYCAAPTDFLFWEFDYWGQGTQVTVSS | low polyreactivity |
| QVQLVESGAGLVQAGGSLRISCAASGRIFAQYAMGWYRQAPGKERELVAAITTTGRTYYADSVKGRFTISRDNAKNTVYLQMNSTKPEETAVYYCAVGYHAPKVSTSDPRYDYWGQGTQVTVSS | low polyreactivity |
| QVQLVESGAGLVQAGGSLRLICAASGRIFDRYTMGRYRQAPGKERELVAAITQRGTSTYYADSVKGRFTLSRDTAKNTVYLQMNSLKPEDTAGYYCAATALFSGLNKRYYWGQGTQLTVSS | high polyreactivity |
| QVQLVESGAGLVQAGGSLRLICAASGSTSTTYTMGWYRQAPGKERELVAAISYSGGSTYYADSVKGRFTISRDNAKNTVYLQMNSLKPEDTAVYYCAAQSFVGWREYESWGQGTQVTVSS | high polyreactivity |
| QVQLVESGAGLVQAGGSLRLRCAASGSIFPGSALGWYRQARGKERELVAAITFGGAITYYADSVKGRFTISRDNAKNTVYLLMNSLKPEDSAVYYCAAKSPRILLDYWGQGTQVTVSS | low polyreactivity |
| QVQLVESGAGLVQAGGSLRLRCAASRRSFRNYAMGWYRPAPGKEREVVAAIRSGVRTYYADSVKGRFTISRDNAKNTVYLQMNSLKPEDTAVYYCAVATGLLYKSHGYWGQGTQVTVSS | low polyreactivity |
| QVQLVESGAGLVQAGGSLRLSCAASGFIFAGYAMGLYRQAPGKERELFAAISSRGGSTYYADSVKGRFTISRDNAKNPVDLQMNSLKPEDTAVYYCNKYYYGFTPVGYKKMDYWGQGTQVIVSS | low polyreactivity |
| QVQLVESGAGLVQAGGSLRLSCAASGFIFWRNTMGWYRQAPGKERELVAVITRGGSTYYADSVKGRFTISRDNAKNTVYLQMNSLKPVDTAVYYCNADNVVEGYDRRSARASYRYYYWGQGTQVTVSS | low polyreactivity |
| QVQLVESGAGLVQAGGSLRLSCAASGFTFQYYAMGWYRQAPGKERELVATISSTDNTYYADSVKGRFTISRDNAKNTVYLQMNSLKPEDTAVYYCAARPTYRRRQGRGYWGQGTQVTVSS | high polyreactivity |

| Sequence | polyreactivity (PSR sort gate) |
| --- | --- |
| QVQLVESGAGLVQAGGSLRLSCAASGFTFWRYVMGTYRPAPGKERELVAGITSGGSTYYADSVKGRFTISRDNAKNTVYLQMNSLKPEDTAVYYCAARSGFRSRHKYDYWGQGTQVSVSS | high polyreactivity |
| QVQLVESGAGLVQAGGSLRLSCAASGFTFYYNAMGWYRQAPGKERELVASISSNGTSTYYADSVKGRFTISRDYAKNTVYLQMNSLKPEDTAVYYCNVDIFDPRTYDYWGQGTQVTVSS | low polyreactivity |
| QVQLVESGAGLVQAGGSLRLSCAASGIIFSGYAMGWYTQAPGKERELVAAISYSGASTYYADSVKGRFTISRDNAKNTVYLQMNSLKPEDTAVYYCAADRRYARYWNGWRYNYWGQGTQVTVSS | high polyreactivity |
| QVQLVESGAGLVQAGGSLRLSCAASGITFSYYSMGWYRQAPGKERELVAVISGSGSTTSYADSVKGRFTISRDNAKNTVYLQMNSLKPEDTAVYYCAADGGWRPEYYYWGQGTQVTVSS | low polyreactivity |
| QVQLVESGAGLVQAGGSLRLSCAASGLIFQSNAMVWYRQAPGKERELVAAISTAGSTNYGDSETGRFTISRDNAKKTVFLQMNSLKREDTAVYSCAAQVSTPYRYPRQILYDYWGQGTQVTVSS | low polyreactivity |
| QVQLVESGAGLVQAGGSLRLSCAASGLTFLQNALGWSRQAPGNERELVAAINIGTNTYADSVKGRFTISRDNAKNTVYLQMNSLKPEDTAVDYCNTDSAPYYWLSDNYDSWGQGTQVTVSS | low polyreactivity |
| QVQLVESGAGLVQAGGSLRLSCAASGLTSTNNAMGWYRQAPGKERELVAAITSGSTTNYADSVKGRFTISRDNAKNTVYLQMNSLKPEDTAVYYCAAQYGVWWRRYYYPEYDYWGQGTQVTVSS | low polyreactivity |
| QVQLVESGAGLVQAGGSLRLSCAASGNIFRFYAMGWYRQAPGKERELVAAISYNGGRTYYADSVKGRFTISRDNAKNTVYLQMNILKPEDTAVYYCNAAGRDDAYDYWGQGTQVTVAS | high polyreactivity |
| QVQLVESGAGLVQAGGSLRLSCAASGRIFHFYAMGWYRQAPGKERELVAAITSRTGNTYYADSVKGRFTISRDNAKNTVYLQMNSLKPEDTAVYYCAAKLVNALLHYRNWNHNNYWGQGTQVTVSS | low polyreactivity |
| QVQLVESGAGLVQAGGSLRLSCAASGRIFNWYVMGWYRQAPGKERELVAAINSGGITKYADSVKGRFTISRDNAKNTVYLQMNSLKPEDTAVYYCAAYYRRYDYDYWGQGTQVTVSS | high polyreactivity |
| QVQLVESGAGLVQAGGSLRLSCAASGRIFTNYVLGWSRQAPGKERELVAAISWTGGRTYYADSVKGRFTISRDYAKNTVYLQMISLKPEDTAVYYCAARARIGTVDYWGQGTQVTVSS | high polyreactivity |
| QVQLVESGAGLVQAGGSLRLSCAASGRTFGRYAMAWYRQAPGKERELVAAINNGGGTYYADSVKGLFTISRDNAKNTVYLLINSLYPEDTAVYYCAAATRKRVGSYYYWGQGTQVTVSS | high polyreactivity |
| QVQLVESGAGLVQAGGSLRLSCAASGRTFVDNTMGLYTHAPGKERELVASISSGGSTYYADSVKGRFTISRDNAKNTVYLQMNRLKPEDTAVYDCATGDTLFVFYPDYEYWGQGTQVTVSS | low polyreactivity |
| QVQLVESGAGLVQAGGSLRLSCAASGRTFWWYAMGWDRQAPGKERELVADINGSGGSTYYADSVKGRFTISRDNAKNTVYLQMICLKPEDTAVYFCAADYYRYIHSVVYSIYDYWGQGTQVTVSS | low polyreactivity |
| QVQLVESGAGLVQAGGSLRLSCAASGRTIRSYAMGWYRQATGKERELVAAISSGGRTYYADSVKGRFTISRDNAKNNVYLQMNSLKPEDTAVYYCAVRYRVYIFQYGYWGQGTQVTVSS | high polyreactivity |
| QVQLVESGAGLVQAGGSLRLSCAASGSIFAWYGMGWYRQAPGQERELVAAISTAGSTNYADSVKGRFTISRDNAKNTVYLQMNSLKPEDTAVYYCAKISSWYYPERFDYWGQGTQVTVSS | low polyreactivity |
